For one substance, Kd, koff and kon results are on record in article PMC7315649.

This assay concerns the target human plasminogen (human). The assay is described as follows: SPR; BIAcore T100 at 25°C; plasminogen amine-coupled to a CM-5 chip (5.0 ng/mm^2); dispersin at 2.5–120 μM in HBS-P (10 mM HEPES pH 7.4, 150 mM NaCl, 0.005% P20) at 30 μL/min; 1:1 model.

Substance “recombinant dispersin (mature dispersin of enteroaggregative Escherichia coli strain 17-2) (from UniProt P43464 1-265) (natural protein)” displayed a Kd of 282 nM, a koff of 0.0016 s⁻¹ and an association rate constant (kon) of 5680 M⁻¹ s⁻¹.
